Experimental findings from patent US20030175270A1, “Methods of regulating cytokine receptor signaling” (priority 2002, published 2003) are described below.

Sequences and labels used below:
B1: lambda PTPase: bacterial lambda PTPase, from Calbiochem (protein)
chain: MRYYEKIDGSKYRNIWVVGDLHGCYTNLMNKLDTIGFDNKKDLLISVGDLVDRGAENVECLELITFPWFRAVRGNHEQMMIDGLSERGNVNHWLLNGGGWFFNLDYDKEILAKALAHKADELPLIIELVSKDKKYVICHADYPFDEYEFGKPVDHQQVIWNRERISNSQNGIVKEIKGADTFIFGHTPAVKPLKFANQMYIDTGAVFCGNLTLIQVQGEGA
B2: PTPase-dead rCD45: PTPase-dead recombinant CD45, D1:C828S mutant (protein, UniProt P08575 26-1306, looked up, variant C828S)
Receptor-type …: QSPTPSPTGLTTAKMPSVPLSSDPLPTHTTAFSPASTFERENDFSETTTSLSPDNTSTQVSPDSLDNASAFNTTGVSSVQTPHLPTHADSQTPSAGTDTQTFSGSAANAKLNPTPGSNAISDVPGERSTASTFPTDPVSPLTTTLSLAHHSSAALPARTSNTTITANTSDAYLNASETTTLSPSGSAVISTTTIATTPSKPTCDEKYANITVDYLYNKETKLFTAKLNVNENVECGNNTCTNNEVHNLTECKNASVSISHNSCTAPDKTLILDVPPGVEKFQLHDCTQVEKADTTICLKWKNIETFTCDTQNITYRFQCGNMIFDNKEIKLENLEPEHEYKCDSEILYNNHKFTNASKIIKTDFGSPGEPQIIFCRSEAAHQGVITWNPPQRSFHNFTLCYIKETEKDCLNLDKNLIKYDLQNLKPYTKYVLSLHAYIIAKVQRNGSAAMCHFTTKSAPPSQVWNMTVSMTSDNSMHVKCRPPRDRNGPHERYHLEVEAGNTLVRNESHKNCDFRVKDLQYSTDYTFKAYFHNGDYPGEPFILHHSTSYNSKALIAFLAFLIIVTSIALLVVLYKIYDLHKKRSCNLDEQQELVERDDEKQLMNVEPIHADILLETYKRKIADEGRLFLAEFQSIPRVFSKFPIKEARKPFNQNKNRYVDILPYDYNRVELSEINGDAGSNYINASYIDGFKEPRKYIAAQGPRDETVDDFWRMIWEQKATVIVMVTRCEEGNRNKCAEYWPSMEEGTRAFGDVVVKINQHKRCPDYIIQKLNIVNKKEKATGREVTHIQFTSWPDHGVPEDPHLLLKLRRRVNAFSNFFSGPIVVHSSAGVGRTGTYIGIDAMLEGLEAENKVDVYGYVVKLRRQRCLMVQVEAQYILIHQALVEYNQFGETEVNLSELHPYLHNMKKRDPPSEPSPLEAEFQRLPSYRSWRTQHIGNQEENKSKNRNSNVIPYDYNRVPLKHELEMSKESEHDSDESSDDDSDSEEPSKYINASFIMSYWKPEVMIAAQGPLKETIGDFWQMIFQRKVKVIVMLTELKHGDQEICAQYWGEGKQTYGDIEVDLKDTDKSSTYTLRVFELRHSKRKDSRTVYQYQYTNWSVEQLPAEPKELISMIQVVKQKLPQKNSSEGNKHHKSTPLLIHCRDGSQQTGIFCALLNLLESAETEEVVDIFQVVKALRKARPGMVSTFEQYQFLYDVIASTYPAQNGQVKKNNHQEDKIEFDNEVDKVKQDANCVNPLGAPEKLPEAKEQAEGSEPTSGTEGPEHSVNGPASPALNQGS
B3: TC-PTP: human non-receptor tyrosine PTPase, from Calbiochem (protein)
chain: MPTTIEREFEELDTQRRWQPLYLEIRNESHDYPHRVAKFPENRNRNRYRDVSPYDHSRVKLQNAENDYINASLVDIEEAQRSYILTQGPLPNTCCHFWLMVWQQKTKAVVMLNRIVEKESVKCAQYWPTDDQEMLFKETGFSVKLLSEDVKSYYTVHLLQLENINSGETRTISHFHYTTWPDFGVPESPASFLNFLFKVRESGSLNPDHGPAVIHCSAGIGRSGTFSLVDTCLVLMEKGDDINIKQVLLNMRKYRMGLIQTPDQLRFSYMAIIEGAKCIKGDSSIQKRWKELSKEDLSPAFDHSPNKIMTEKYNGNR

In the experiment the test system is JAK2. Nature of the experiment: in vitro tyrosine phosphatase assay, substrate JAK2. It counts as biochemical, mouse. Conditions: 30° C., 20 min. As to the method: For tyrosine phosphatase assays, immunoprecipitated Lyn, JAKs or STATs from lysates of 10^7 BMMCs (for Lyn, JAK1, JAK2, STAT3 and STAT5) or macrophages (for Tyk2) were washed in lysis buffer and phosphatase reaction buffer [Felberg et al., J. Biol. Chem. 273:17839-17845, 1998]. The amounts of Lyn and JAK2 in the immunoprecipitates used in FIG. 3A were 72 ng and 48 ng, respectively, as determined by silver staining. Recombinant CD45 was added to substrates in the presence or absence of 0.1 mM Na3 VO4 followed by incubation at 30° C. for 20 min. Tyrosine phosphorylation was monitored by immunoblotting with phosphotyrosine-specific antibodies. The extent of tyrosine phosphorylation and amount of substrates were determined by quantifying the intensities of the immunoblots with NIH Image 1.61 software. Kinase activity in anti-Lyn or anti-JAK immunoprecipitates was assessed by an in vitro kinase assay with Raytide (Oncogen Science) as a substrate or using authophosphorylation [Lui et al., Genes Dev. 13:786-791, 1999]. In vitro binding assays were performed as described [Felberg et al., J. Biol. Chem. 273:17839-17845, 1998], using 1 μg of soluble GST, GST-CD45-D2, or GST-PTPase-dead CD45 (D1:C828S). EMSAs were as described [Charurvedi et al., Mol. Cell. Biol. 17:3295-3304, 1997]. The sequences of the EMSA probes were: STAT3, 5′-[…]-3′ (SEQ ID NO: 1); STAT3 mutant, 5′-[…]-3′ (SEQ ID NO: 2).
To determine whether CD45 could directly dephosphorylate JAKs and/or STATs, phosphatase assays were used in in vitro studies with recombinant CD45. The rCD45 employed contained the intracellular dual PTPase domains with a relative molecular mas of 97,000 (Mr 97K) (the catalytic D1 and the non-catalytic D2 domains) of CD45 but lacked its extracellular regions. […] Phosphorylation was examined with anti-phosphoryrosine, anti-phospho-Tyr 705 STAT3 (P-Y705-STAT3), and anti-phospho-Try 1007/Try 1008 JAK2 (P-Y1007/1008-JAK2). Assays were performed with 10U (for JAK2) or 90U (for STAT3) of rCD45. […]
For B1, the “dephosphorylation of JAK2” value is “did not dephosphorylate JAK2”. On to B2, for which the “dephosphorylation of JAK2” value is recorded as “did not dephosphorylate JAK2”. Turning to B3, the “dephosphorylation of JAK2” value is reported as “did not dephosphorylate JAK2”.
